B1: Op MAL1 (maltase protein MAL1 of Ogataea polymorpha) (Ogataea angusta) (protein)
chain: MTIESQEPWWKSAVVYQVWPASFKDSNGDGIGDLNGITSELDHIKSLGTDVIWLSPHYASPLDDMGYDISDYNAINPQFGTMEDMDRLLAEIKKRDMRLILDLVINHTSSEHAWFKESRSSRDNPKRDWYIWKDNANNWLSFFSGSAWSYDEKTKQYYLRLFAETQPDLNWENPKTREAIYKSALEFWYEKGVSGFRIDTAGLYSKVQTFEDAPVTFPGEKYQPAGPLINSGPRIHEFHKEMYEKVTSRYDAMTVGEVGHCSKADALKYVSAKEKEMNMMFLFDTVDVGSDKSDRFRYKGFTLTDFKDAIINQSNFIFDDETGELNDAWSTVFIENHDQPRCVTRFGNTSNKLFWSRSAKMLALLQTTLTGTLFVYQGQEIGMTNVSPKWDISEYLDINTINYWNAFNETEHSDEEKAELLKIINLLARDNARTPVQWDSSENGGFGGKPWMRINDNYKDINVASQKEDPDSVLNFYRNAIKTRKHYSETLIFGRFEVQDYDNQEIFYYTKTSNKGQKKMAVVLNFTDREVEYPIPQGKLLLSNIANNITGKLQPYEGRLIEVN

Key:
[1] = biological target: T1, Op MAL1 (maltase protein MAL1 of Ogataea polymorpha) (Ogataea angusta, UniProt Q9P8G8); experiment: inhibition of α-pNPG hydrolysis (p-nitrophenol release); type: biochemical; settings: competitive; 0.1-3.0 mM α-pNPG; 100 mM K-phosphate pH 6.5, 0.1 mM EDTA, 37 °C; 5 min pre-incubation; read-out: K i (mM) of Op maltase
T1 sequence (Q9P8G8 1-564): B1 chain

purified protein = substrate: O=[N+]([O-])c1ccc(O[C@H]2O[C@H](CO)[C@@H](O)[C@H](O)[C@H]2O)cc1; experiment: purified protein; settings: 100 mM K-phosphate pH 6.5, 0.1 mM EDTA, 37 °C
[2] = substrate: OC[C@H]1O[C@@](CO)(O[C@H]2O[C@H](CO)[C@@H](O)[C@H](O)[C@H]2O)[C@@H](O)[C@@H]1O; experiment: initial rate of glucose release; type: biochemical, Ogataea angusta; settings: 100 mM K-phosphate pH 6.5, 0.1 mM EDTA, 37 °C
Text: (§1) initial rate of glucose release on Op MAL1 (maltase protein MAL1 of Ogataea polymorpha)

[3] = substrate: CO[C@H]1O[C@H](CO)[C@@H](O)[C@H](O)[C@H]1O; experiment: initial rate of glucose release; type: biochemical, Ogataea angusta; settings: 100 mM K-phosphate pH 6.5, 0.1 mM EDTA, 37 °C
Text: as §1

Molecule	Ki [1] [mM]	Km (purified protein) [mM]	kcat (purified protein) [s⁻¹]	kcat/Km (purified protein) [M⁻¹ s⁻¹]	Km [2] [mM]	kcat [2] [s⁻¹]	kcat/Km [2] [M⁻¹ s⁻¹]	Km [3] [mM]	kcat [3] [s⁻¹]	kcat/Km [3] [M⁻¹ s⁻¹]
C[C@H]1O[C@H](O[C@H]2[C@H](O)[C@@H](O)[C@@H](O[C@H]3[C@H](O)[C@@H](O)C(O)O[C@@H]3CO)O[C@@H]2CO)[C@H](O)[C@@H](O)[C@@H]1N[C@H]1C=C(CO)[C@@H](O)[C@H](O)[C@H]1O (some centres unmarked) [Acarbose]	0.0065 ± 0.0008									
OC[C@H]1OC(O)[C@H](O)[C@@H](O)[C@@H]1O (stereo partly drawn) [D-Glucose]	5.1 ± 0.7									
B1		0.52 ± 0.05	141	272000	25.1 ± 2.4	183 ± 6.95	7290	35.5 ± 3.3	30.1 ± 1.1	848

— PMC5074314, “Maltase protein of Ogataea (Hansenula) polymorpha is a counterpart to the resurrected ancestor protein ancMALS of yeast maltases and isomaltases” (Yeast (Chichester, England), 2016)
